From publication PMC11773018

Experiments:
[1] = biological target: human complement factor H (human) (UniProt P08603); assay: SPR; human FH conjugated to a CM5 chip; untreated untagged CspZ flowed in PBS at 10 μl/min, 25 °C; Biacore T200; 1:1 Langmuir model
[2] = biological target: human complement factor H (human) (UniProt P08603); assay: SPR; human FH conjugated to a CM5 chip; untagged CspZ treated with 100 μM EDTA and dialysed against PBS, flowed in EDTA-treated PBS (100 μM) at 10 μl/min, 25 °C; 1:1 Langmuir model
human factor H (human) [3] = biological target: human factor H (human) (UniProt P08603); assay: SPR; human FH conjugated to a CM5 chip; untreated (PBS) untagged CspZ at one concentration (2 uM in methods and legend, 1 uM in the table's footnote) flowed in PBS at 10 ul/min, 25 C, Biacore T200, 1:1 Langmuir model
human factor H (human) [4] = biological target: human factor H (human) (UniProt P08603); assay: SPR; human FH conjugated to a CM5 chip; untreated (PBS) untagged CspZ at one concentration (2 uM in methods and legend, 1 uM in the table's footnote) flowed in PBS at 30 ul/min, 25 C, Biacore T200, 1:1 Langmuir model
human factor H (human) [5] = biological target: human factor H (human) (UniProt P08603); assay: SPR; human FH conjugated to a CM5 chip; untreated (PBS) untagged CspZ at one concentration (2 uM in methods and legend, 1 uM in the table's footnote) flowed in PBS at 100 ul/min, 25 C, Biacore T200, 1:1 Langmuir model
human factor H (human) [6] = biological target: human factor H (human) (UniProt P08603); assay: SPR; human FH conjugated to a CM5 chip; untagged CspZ treated with 100 uM EDTA and dialysed against PBS, one concentration (2 uM in methods and legend, 1 uM in the table's footnote), flow rate 10 ul/min, 25 C, Biacore T200, 1:1 Langmuir model
human factor H (human) [7] = biological target: human factor H (human) (UniProt P08603); assay: SPR; human FH conjugated to a CM5 chip; untagged CspZ treated with 100 uM EDTA and dialysed against PBS, one concentration (2 uM in methods and legend, 1 uM in the table's footnote), flow rate 30 ul/min, 25 C, Biacore T200, 1:1 Langmuir model
human factor H (human) [8] = biological target: human factor H (human) (UniProt P08603); assay: SPR; human FH conjugated to a CM5 chip; untagged CspZ treated with 100 uM EDTA and dialysed against PBS, one concentration (2 uM in methods and legend, 1 uM in the table's footnote), flow rate 100 ul/min, 25 C, Biacore T200, 1:1 Langmuir model
[9] = biological target: human complement factor H (human) (UniProt P08603); assay: SPR; human FH conjugated to a CM5 chip; EDTA-treated, PBS-dialysed untagged CspZ then incubated with 100 μM zinc, flowed in zinc-treated PBS (100 μM) at 10 μl/min, 25 °C; 1:1 Langmuir model
human factor H (human) [10] = biological target: human factor H (human) (UniProt P08603); assay: SPR; human FH conjugated to a CM5 chip; EDTA-treated, PBS-dialysed untagged CspZB31 then treated with 100 uM zinc (EDTA-Zn), one concentration (2 uM in methods and legend, 1 uM in the table's footnote), flow rate 10 ul/min, 25 C, Biacore T200, 1:1 Langmuir model
human factor H (human) [11] = biological target: human factor H (human) (UniProt P08603); assay: SPR; human FH conjugated to a CM5 chip; EDTA-treated, PBS-dialysed untagged CspZB31 then treated with 100 uM zinc (EDTA-Zn), one concentration (2 uM in methods and legend, 1 uM in the table's footnote), flow rate 30 ul/min, 25 C, Biacore T200, 1:1 Langmuir model
human factor H (human) [12] = biological target: human factor H (human) (UniProt P08603); assay: SPR; human FH conjugated to a CM5 chip; EDTA-treated, PBS-dialysed untagged CspZB31 then treated with 100 uM zinc (EDTA-Zn), one concentration (2 uM in methods and legend, 1 uM in the table's footnote), flow rate 100 ul/min, 25 C, Biacore T200, 1:1 Langmuir model

| Substance | Kd [1] [nM] | koff [1] [s⁻¹] | kon [1] [M⁻¹ s⁻¹] | Kd [2] [nM] | koff [2] [s⁻¹] | kon [2] [M⁻¹ s⁻¹] | Kd (human factor H (human) [3]) [nM] | koff (human factor H (human) [3]) [s⁻¹] | kon (human factor H (human) [3]) [M⁻¹ s⁻¹] | Kd (human factor H (human) [4]) [nM] | koff (human factor H (human) [4]) [s⁻¹] | kon (human factor H (human) [4]) [M⁻¹ s⁻¹] | Kd (human factor H (human) [5]) [nM] | koff (human factor H (human) [5]) [s⁻¹] | kon (human factor H (human) [5]) [M⁻¹ s⁻¹] | Kd (human factor H (human) [6]) [nM] | koff (human factor H (human) [6]) [s⁻¹] | kon (human factor H (human) [6]) [M⁻¹ s⁻¹] | Kd (human factor H (human) [7]) [nM] | koff (human factor H (human) [7]) [s⁻¹] | other results |
| --- | --- | --- | --- | --- | --- | --- | --- | --- | --- | --- | --- | --- | --- | --- | --- | --- | --- | --- | --- | --- | --- |
| CspZ from Borrelia afzelii VS461, untagged (natural protein) | 370 | 0.0034 | 9420 | 470 | 0.0045 | 10600 | 370 | 0.004 | 10800 | 380 | 0.004 | 10800 | 340 | 0.003 | 10500 | 480 | 0.004 | 10700 | 430 | 0.003 | kon (human factor H (human) [7]): 9160 M⁻¹ s⁻¹; Kd (human factor H (human) [8]): 110 nM; koff (human factor H (human) [8]): 0.004 s⁻¹; kon (human factor H (human) [8]): 11100 M⁻¹ s⁻¹ |
| CspZ from Borrelia burgdorferi B31, untagged (natural protein) | 340 | 0.021 | 66600 | 3050 | 0.012 | 4370 | 230 | 0.016 | 68800 | 270 | 0.017 | 63200 | 250 | 0.017 | 69200 | 3370 | 0.012 | 4560 | 3730 | 0.021 | Kd [9]: 680 nM; koff [9]: 0.035 s⁻¹; kon [9]: 51200 M⁻¹ s⁻¹; kon (human factor H (human) [7]): 5790 M⁻¹ s⁻¹; Kd (human factor H (human) [8]): 3670 nM; koff (human factor H (human) [8]): 0.017 s⁻¹; kon (human factor H (human) [8]): 4830 M⁻¹ s⁻¹; Kd (human factor H (human) [10]): 620 nM; koff (human factor H (human) [10]): 0.037 s⁻¹; kon (human factor H (human) [10]): 60900 M⁻¹ s⁻¹; Kd (human factor H (human) [11]): 570 nM; koff (human factor H (human) [11]): 0.034 s⁻¹; kon (human factor H (human) [11]): 61700 M⁻¹ s⁻¹; Kd (human factor H (human) [12]): 660 nM; koff (human factor H (human) [12]): 0.044 s⁻¹; kon (human factor H (human) [12]): 66600 M⁻¹ s⁻¹ |
| CspZ from Borrelia burgdorferi B408, untagged (natural protein) | 540 | 0.0079 | 14100 | 490 | 0.0071 | 13900 | 550 | 0.008 | 16500 | 530 | 0.007 | 13600 | 540 | 0.006 | 13200 | 480 | 0.007 | 15700 | 480 | 0.006 | kon (human factor H (human) [7]): 13600 M⁻¹ s⁻¹; Kd (human factor H (human) [8]): 500 nM; koff (human factor H (human) [8]): 0.008 s⁻¹; kon (human factor H (human) [8]): 16700 M⁻¹ s⁻¹ |
